Assay results from IntAct's records for PubMed 31515488.

B1: DNA mismatch repair protein Mlh1 (Homo sapiens), P40692 (parent)
chain: MSFVAGVIRRLDETVVNRIAAGEVIQRPANAIKEMIENCLDAKSTSIQVIVKEGGLKLIQIQDNGTGIRKEDLDIVCERFTTSKLQSFEDLASISTYGFRGEALASISHVAHVTITTKTADGKCAYRASYSDGKLKAPPKPCAGNQGTQITVEDLFYNIATRRKALKNPSEEYGKILEVVGRYSVHNAGISFSVKKQGETVADVRTLPNASTVDNIRSIFGNAVSRELIEIGCEDKTLAFKMNGYISNANYSVKKCIFLLFINHRLVESTSLRKAIETVYAAYLPKNTHPFLYLSLEISPQNVDVNVHPTKHEVHFLHEESILERVQQHIESKLLGSNSSRMYFTQTLLPGLAGPSGEMVKSTTSLTSSSTSGSSDKVYAHQMVRTDSREQKLDAFLQPLSKPLSSQPQAIVTEDKTDISSGRARQQDEEMLELPAPAEVAAKNQSLEGDTTKGTSEMSEKRGPTSSNPRKRHREDSDVEMVEDDSRKEMTAACTPRRRIINLTSVLSLQEEINEQGHEVLREMLHNHSFVGCVNPQWALAQHQTKLYLLNTTKLSEELFYQILIYDFANFGVLRLSEPAPLFDLAMLALDSPESGWTEEDGPKEGLAEYIVEFLKKKAEMLADYFSLEIDEEGNLIGLPLLIDNYVPPLEGLPIFILRLATEVNWDEEKECFESLSKECAMFYSIRKQYISEESTLSGQQSEVPGSIPNSWKWTVEHIVYKALRSHILPPKHFTEDGNILQLANLPDLYKVFERC
partner: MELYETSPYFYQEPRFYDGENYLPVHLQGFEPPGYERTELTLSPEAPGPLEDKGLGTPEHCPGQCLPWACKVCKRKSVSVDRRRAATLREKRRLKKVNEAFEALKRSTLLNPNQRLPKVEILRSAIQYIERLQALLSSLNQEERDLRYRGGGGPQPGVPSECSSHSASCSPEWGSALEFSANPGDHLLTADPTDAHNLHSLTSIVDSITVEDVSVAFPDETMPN
B2: Bleomycin hydrolase (Homo sapiens), Q13867 (parent)
chain: MSSSGLNSEKVAALIQKLNSDPQFVLAQNVGTTHDLLDICLKRATVQRAQHVFQHAVPQEGKPITNQKSSGRCWIFSCLNVMRLPFMKKLNIEEFEFSQSYLFFWDKVERCYFFLSAFVDTAQRKEPEDGRLVQFLLMNPANDGGQWDMLVNIVEKYGVIPKKCFPESYTTEATRRMNDILNHKMREFCIRLRNLVHSGATKGEISATQDVMMEEIFRVVCICLGNPPETFTWEYRDKDKNYQKIGPITPLEFYREHVKPLFNMEDKICLVNDPRPQHKYNKLYTVEYLSNMVGGRKTLYNNQPIDFLKKMVAASIKDGEAVWFGCDVGKHFNSKLGLSDMNLYDHELVFGVSLKNMNKAERLTFGESLMTHAMTFTAVSEKDDQDGAFTKWRVENSWGEDHGHKGYLCMTDEWFSEYVYEVVVDRKHVPEEVLAVLEQEPIILPAWDPMGALAE
B3: Paraneoplastic antigen-like protein 5 (Homo sapiens), Q96PV4 (parent)
chain: MALTLLEDWCKGMDMDPRKALLIVGIPMECSEVEIQDTVKAGLQPLCAYRVLGRMFRREDNAKAVFIELADTVNYTTLPSHIPGKGGSWEVVVKPRNPDDEFLSRLNYFLKDEGRSMTDVARALGCCSLPAESLDAEVMPQVRSPPLEPPKESMWYRKLKVFSGTASPSPGEETFEDWLEQVTEIMPIWQVSEVEKRRRLLESLRGPALSIMRVLQANNDSITVEQCLDALKQIFGDKEDFRASQFRFLQTSPKIGEKVSTFLLRLEPLLQKAVHKSPLSVRSTDMIRLKHLLARVAMTPALRGKLELLDQRGCPPNFLELMKLIRDEEEWENTEAVMKNKEKPSGRGRGASGRQARAEASVSAPQATVQARSFSDSSPQTIQGGLPPLVKRRRLLGSESTRGEDHGQATYPKAENQTPGREGPQAAGEELGNEAGAGAMSHPKPWET
partner: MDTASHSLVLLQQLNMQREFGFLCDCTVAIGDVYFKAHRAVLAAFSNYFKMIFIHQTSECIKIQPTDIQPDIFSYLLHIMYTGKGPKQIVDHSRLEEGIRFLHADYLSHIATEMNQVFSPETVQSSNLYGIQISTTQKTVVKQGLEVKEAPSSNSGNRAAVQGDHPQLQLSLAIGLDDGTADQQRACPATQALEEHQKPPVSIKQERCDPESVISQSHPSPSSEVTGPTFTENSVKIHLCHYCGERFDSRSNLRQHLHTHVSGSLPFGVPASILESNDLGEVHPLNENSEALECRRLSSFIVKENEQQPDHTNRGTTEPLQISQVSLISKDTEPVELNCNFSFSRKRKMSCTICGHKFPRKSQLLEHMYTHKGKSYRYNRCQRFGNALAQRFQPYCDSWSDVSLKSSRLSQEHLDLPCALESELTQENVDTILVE
B4: Segment polarity protein dishevelled homolog DVL-2 (Homo sapiens), O14641 (parent)
chain: MAGSSTGGGGVGETKVIYHLDEEETPYLVKIPVPAERITLGDFKSVLQRPAGAKYFFKSMDQDFGVVKEEISDDNARLPCFNGRVVSWLVSSDNPQPEMAPPVHEPRAELAPPAPPLPPLPPERTSGIGDSRPPSFHPNVSSSHENLEPETETESVVSLRRERPRRRDSSEHGAGGHRTGGPSRLERHLAGYESSSTLMTSELESTSLGDSDEEDTMSRFSSSTEQSSASRLLKRHRRRRKQRPPRLERTSSFSSVTDSTMSLNIITVTLNMEKYNFLGISIVGQSNERGDGGIYIGSIMKGGAVAADGRIEPGDMLLQVNDMNFENMSNDDAVRVLRDIVHKPGPIVLTVAKCWDPSPQAYFTLPRNEPIQPIDPAAWVSHSAALTGTFPAYPGSSSMSTITSGSSLPDGCEGRGLSVHTDMASVTKAMAAPESGLEVRDRMWLKITIPNAFLGSDVVDWLYHHVEGFPERREARKYASGLLKAGLIRHTVNKITFSEQCYYVFGDLSGGCESYLVNLSLNDNDGSSGASDQDTLAPLPGATPWPLLPTFSYQYPAPHPYSPQPPPYHELSSYTYGGGSASSQHSEGSRSSGSTRSDGGAGRTGRPEERAPESKSGSGSESEPSSRGGSLRRGGEASGTSDGGPPPSRGSTGGAPNLRAHPGLHPYGPPPGMALPYNPMMVVMMPPPPPPVPPAVQPPGAPPVRDLGSVPPELTASRQSFHMAMGNPSEFFVDVM
partner: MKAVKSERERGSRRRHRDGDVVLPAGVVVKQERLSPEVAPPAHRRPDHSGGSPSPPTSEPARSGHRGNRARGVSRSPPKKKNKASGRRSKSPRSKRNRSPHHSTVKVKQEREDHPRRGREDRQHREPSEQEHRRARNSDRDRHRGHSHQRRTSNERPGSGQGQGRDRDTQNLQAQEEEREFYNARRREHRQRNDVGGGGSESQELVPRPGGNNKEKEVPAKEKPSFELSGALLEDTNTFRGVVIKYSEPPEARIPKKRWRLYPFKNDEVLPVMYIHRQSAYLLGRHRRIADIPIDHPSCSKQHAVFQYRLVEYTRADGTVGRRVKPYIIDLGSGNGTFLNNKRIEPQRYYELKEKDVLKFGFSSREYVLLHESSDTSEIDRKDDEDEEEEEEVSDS

Variants of: B1
Conditions: with myog_human MYOG

Question: For V384D, which “effect of a mutation on the interaction” value is on record?
Answer: Its value is “with no effect”.

Question: How did the “effect of a mutation on the interaction” value turn out when S406N was run?
Answer: Its value is “with no effect”.

Question: A441T was tested. Which “effect of a mutation on the interaction” value did it give?
Answer: Its value is “with no effect”.

Variants of: B2
Conditions: with nud12_human NUDT12, Q9BQG2
Sequence of nud12_human NUDT12, Q9BQG2 (Q9BQG2 whole entry): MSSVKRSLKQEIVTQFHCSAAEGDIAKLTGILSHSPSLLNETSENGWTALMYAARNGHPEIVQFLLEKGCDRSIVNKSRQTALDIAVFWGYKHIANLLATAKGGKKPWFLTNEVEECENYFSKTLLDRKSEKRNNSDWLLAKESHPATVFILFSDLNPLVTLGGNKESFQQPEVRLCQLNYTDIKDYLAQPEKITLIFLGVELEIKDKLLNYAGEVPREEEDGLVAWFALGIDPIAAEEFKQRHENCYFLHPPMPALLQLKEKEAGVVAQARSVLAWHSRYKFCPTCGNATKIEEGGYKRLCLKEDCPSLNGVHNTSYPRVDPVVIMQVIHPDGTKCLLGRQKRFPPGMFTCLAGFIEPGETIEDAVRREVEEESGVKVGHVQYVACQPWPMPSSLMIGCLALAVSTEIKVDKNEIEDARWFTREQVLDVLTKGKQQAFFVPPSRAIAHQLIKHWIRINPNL

Question: For I443V, which “effect of a mutation on the interaction” value is on record?
Answer: The value was “with no effect”.

Variants of: B2
Conditions: with ntaq1_human NTAQ1, Q96HA8

Question: Which “effect of a mutation on the interaction” value does the source give for E381K here?
Answer: Its value is “with no effect”.

Variants of: B3
Conditions: with zbt25_human ZBTB25, P24278

Question: L21Q was tested. Which “effect of a mutation on the interaction” value did it give?
Answer: The value was “disrupting interaction strength”.

Question: Which “effect of a mutation on the interaction” value does the source give for T261A here?
Answer: The value was “with no effect”.

Question: With V274M as the variant, how does the “effect of a mutation on the interaction” value read?
Answer: Its value is “with no effect”.

Question: For R312Q, which “effect of a mutation on the interaction” value is on record?
Answer: Its value is “with no effect”.

Variants of: B4
Conditions: with snip1_human SNIP1, Q8TAD8

Question: A53V was tested. Which “effect of a mutation on the interaction” value did it give?
Answer: The value was “with no effect”.

Question: T535I was tested. Which “effect of a mutation on the interaction” value did it give?
Answer: Its value is “with no effect”.
